A word on the Kd: it is the concentration at which binding is half-saturated.

For one assay, the target named is HLA-A*30:02. Briefly: IEDB peptide-MHC binding, purified MHC/competitive/radioactivity; filed as Kd, often an IC50 or EC50 that approximates it; ≥ and ≤ were set here for values at or beyond the usual limits of such assays. Conditions: source organism: Dengue virus 4 Philippines/H241/1956.
The next assay deals with HLA-B*35:01. The description is as above.
The target of assay [1] is HLA-B*15:01. The assay is described as above.
For assay [2], the target named is HLA-B*08:01. The assay is described as above.
The target of another assay is HLA-B*51:01. The description is as above.
The target of another assay is HLA-B*53:01. The description is as above.
Another assay has as its target HLA-A*32:01. The assay is described as above. To be noted: source organism: Vaccinia virus WR.
A further assay concerns the target HLA-B*40:01. Described as above.
The target of assay [3] is HLA-B*07:02. Described as above.
The target of another assay is HLA-B*44:03. The assay is described as above. Conditions: source organism: Dengue virus 1 Brazil/97-11/1997.
Another assay deals with HLA-A*02:02. The description is as above.
In another assay the target is HLA-A*02:03. Described as above.
The target in a further assay is HLA-A*02:06. The description is as above.
For a further assay, the target named is HLA-A*03:01. Briefly: IEDB peptide-MHC binding, purified MHC/direct/fluorescence; filed as Kd, often an IC50 or EC50 that approximates it; ≥ and ≤ were set here for values at or beyond the usual limits of such assays. To be noted: source organism: SARS-CoV1.
Another assay addresses HLA-A*02:01. The assay is described as above. Conditions: source organism: SARS-CoV1.
In a further assay the target is HLA-A*31:01. The assay is described as above. Conditions: source organism: SARS-CoV1.
In assay [4] the target is HLA-B*08:01. The description is as above. Conditions: source organism: SARS-CoV1.
A further assay has as its target HLA-B*58:01. The description is as above. Conditions: source organism: SARS-CoV1.
The target of a further assay is HLA-A*01:01. The assay is described as above. Conditions: source organism: SARS-CoV1.
The target of a further assay is HLA-A*69:01. The description is as above. Conditions: source organism: SARS-CoV1.
The target of assay [5] is HLA-B*07:02. The assay is described as above. Conditions: source organism: SARS-CoV1.
Assay [6] concerns the target HLA-B*15:01. Described as above. To be noted: source organism: SARS-CoV1.
Where [7] appears, read: source organism: Dengue virus 4 Philippines/H241/1956.
The mark [8] stands for this setting: source organism: Dengue virus 2 Peru/IQT2913/1996.
The mark [9] stands for this setting: source organism: Vaccinia virus WR.
Setting [10] is: source organism: Dengue virus 2 Jamaica/1409/1983.
Setting [11] is: source organism: Dengue virus 1 Brazil/97-11/1997.
The mark [12] stands for this setting: source organism: SARS coronavirus Tor2.

Regarding LGAQALPVY, the equilibrium dissociation constant (Kd) with HLA-A*30:02 amounted to 12.3 nM; with HLA-B*35:01 (setting [7]), 629 nM; with HLA-B*15:01 [1] (setting [7]), 3.42 nM.

As to LLLGVGLAM, the Kd with HLA-B*15:01 [1] (source organism: Dengue virus 3 Martinique/1243/1999) worked out at 31.7 nM.

In the case of LLVLCVTQVL, the Kd with HLA-B*08:01 [2] (setting [8]) was found to be 12900 nM.

LMNNLDTLF: the dissociation constant Kd in the assay with HLA-B*15:01 [1] (setting [9]) was found to be 86.4 nM. For LMYFHRRDL, the dissociation constant (Kd) with HLA-B*08:01 [2] (setting [10]) came to 61 nM.

Consider LPESLETLML, for which the Kd with HLA-B*51:01 (setting [7]) is not below 31800 nM; in the assay with HLA-B*35:01 (setting [7]), 630 nM; in the assay with HLA-B*53:01 (setting [7]), 96.1 nM. With LSANLFESQ, the dissociation constant Kd in the assay with HLA-B*15:01 [1] (setting [9]) turned out to be 45 nM. Still for that read-out and setting: as for LSIFFIVVA, the figure is 82.3 nM. Turning to LTISFFLIM, the Kd turned out to be 7690 nM with HLA-B*15:01 [1] (setting [9]) and 11600 nM with HLA-A*32:01. With LVLCVTQVLM, the dissociation constant (Kd) with HLA-B*35:01 (setting [8]) turned out to be 1900 nM. Regarding MENVYISSY, in the assay with HLA-B*15:01 [1] (setting [9]), the dissociation constant (Kd) was 1.97 nM. In the case of MIIMLIPTVM, the Kd with HLA-B*35:01 (setting [8]) was 2820 nM; with HLA-B*53:01 (setting [8]) it was not below 27000 nM. For MLLVLCAGQL, the Kd in the assay with HLA-B*08:01 [2] (setting [7]) was determined as 822 nM. MNLYSFTIV: the dissociation constant Kd in the assay with HLA-B*08:01 [2] (source organism: Vaccinia virus Copenhagen) is 1810 nM.

For the sequence MPPLRFLGE, in the assay with HLA-B*08:01 [2] (setting [7]), the dissociation constant Kd came to 2570 nM. Regarding MYKKAEASF, in the assay with HLA-B*15:01 [1] (setting [9]), the Kd amounted to 69.3 nM. For the sequence NESDPEGAL, in the assay with HLA-B*40:01 (setting [11]), the Kd was determined as 17 nM.

With NGKPKTFAI, the Kd with HLA-B*08:01 [2] (setting [9]) amounted to 2110 nM. Regarding NMIKMFSQI, the Kd with HLA-B*15:01 [1] (setting [9]) was 354 nM.

For PPEVERAVL, the Kd in the assay with HLA-B*07:02 [3] (setting [11]) worked out at 156 nM. For the sequence QEVVVLGSQE, the equilibrium dissociation constant (Kd) was determined as 13700 nM with HLA-B*44:03 and 1190 nM with HLA-B*40:01 (setting [11]). In the case of QPHWIAASI, the values for the equilibrium dissociation constant (Kd) in the assay with HLA-B*51:01 (setting [10]), with HLA-B*53:01 (setting [10]) and in the assay with HLA-B*07:02 [3] (setting [10]) were 477 nM, 29.7 nM and 29.1 nM, respectively. Take RSANTSAPF: the Kd with HLA-B*15:01 [1] (setting [9]) stood at 0.681 nM. On the same count and under the same terms, as for SGIGTFLHY, the figure is 23.3 nM. In the case of SPIVNREGKI, the Kd was determined as 10400 nM with HLA-B*51:01 (setting [11]) and 184 nM in the assay with HLA-B*07:02 [3] (setting [11]).

With TEDDLLNEEL, the Kd with HLA-B*40:01 (setting [7]) was 39.8 nM. In the case of TPEAKNSTF, the Kd with HLA-B*35:01 (setting [7]) was 1680 nM. On the same count and under the same terms, as for TPQDNQLIY, the figure is 2.91 nM. For VLWAHGFEL, the Kd with HLA-A*02:02 (setting [12]) was 2.4 nM; in the assay with HLA-A*02:03 (setting [12]), 33.8 nM; in the assay with HLA-A*02:06 (setting [12]), 20.3 nM; with HLA-A*03:01, 2330 nM; in the assay with HLA-A*02:01, 72.4 nM; in the assay with HLA-A*31:01, 305 nM. The Kd was 3200 nM with HLA-B*08:01 [4]; 1860 nM in the assay with HLA-B*58:01; 4700 nM in the assay with HLA-A*01:01; 65.5 nM with HLA-A*69:01; 6180 nM with HLA-B*07:02 [5]; 617 nM in the assay with HLA-B*15:01 [6]. Take VQQLTKRFSL: the equilibrium dissociation constant (Kd) in the assay with HLA-B*08:01 [2] (setting [10]) was determined as 27.8 nM. On to YLLMHLVSL, for which the dissociation constant (Kd) with HLA-B*08:01 [2] (setting [9]) is 1160 nM; in the assay with HLA-A*02:02 (setting [9]) it was 0.175 nM; in the assay with HLA-A*02:03 (setting [9]), 1.4 nM; in the assay with HLA-A*02:06 (setting [9]), 0.254 nM. On to YNRDKFKAF, for which the Kd with HLA-B*08:01 [2] (setting [9]) was found to be 20.2 nM. With YSKLTSMHF, the dissociation constant Kd in the assay with HLA-B*15:01 [1] (setting [9]) worked out at 0.574 nM.
